Results reported in publication PMC9438503, “The Haemophilus influenzae HipBA toxin–antitoxin system adopts an unusual three-component regulatory mechanism” (IUCrJ, 2022).

T1: HipA^C, C-terminal component of the split HipA toxin from Haemophilus influenzae (HI0665), His-tagged (H. influenzae (KW20 strain, ATCC 51907), UniProt P44033 1-343)
T1 construct: also called His-tagged HipA^C; not shown: His6, N-terminal, kept
T1 sequence: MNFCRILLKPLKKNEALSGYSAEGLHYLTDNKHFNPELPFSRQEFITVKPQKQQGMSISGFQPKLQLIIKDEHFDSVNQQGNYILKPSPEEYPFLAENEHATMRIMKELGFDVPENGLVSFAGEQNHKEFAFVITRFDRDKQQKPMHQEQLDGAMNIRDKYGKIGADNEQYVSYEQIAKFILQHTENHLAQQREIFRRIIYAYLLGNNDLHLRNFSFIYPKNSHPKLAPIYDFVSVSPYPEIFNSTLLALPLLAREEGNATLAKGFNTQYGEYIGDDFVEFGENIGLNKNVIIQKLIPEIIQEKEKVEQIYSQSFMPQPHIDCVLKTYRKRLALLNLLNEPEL

B1: HipA^N, N-terminal component of the split HipA toxin from Haemophilus influenzae (HI0666) (natural protein)
chain: MRDLVRSGKVFLYGEFIGLLREDHRGFHFSYNPDYQGIPLSLSFPIEQSPFHSDTLFPYFASLVPEGWLKHKYALHQRIDESDMFRFLLNNGENMLGAVQIQEEKQ

Key:
[1] = target: HipB antitoxin from Haemophilus influenzae (HI0666.1) (H. influenzae (KW20 strain, ATCC 51907)) (UniProt P44034); experiment: cross-linking; chemical cross-linking of H. influenzae HipB with DMA and DMS cross-linkers, SDS-PAGE
[2] = target: T1, HipA^C, C-terminal component of the …; experiment: pull-down; settings: partners not purified

| Molecule | stoichiometry N [1] | binding result [2] |
| --- | --- | --- |
| HipB antitoxin from Haemophilus influenzae (HI0666.1) (from UniProt P44034 1-106) (natural protein) | 2 | – |
| B1 | – | binds |
